The source of these data is patent US20200024330A1.

What all share (assay): cell-based or functional assay
Assay [1] addresses HIV-1 92RW020 envelope protein (Env) on pseudovirus (HIV-1).
Assay [2] deals with HIV-1 98IN022 envelope glycoprotein (Env) on pseudovirus (HIV-1).
The target in assay [3] is HIV-1 Env of isolate 92UG046 (clade D) (HIV-1).
For assay [4], the target named is HIV-1 Env of isolate MGRM-AE-003 (HIV-1).
Assay [5] addresses HIV-1 Env of isolate MGRM-D-024 (clade D) (HIV-1).
Assay [6] has as its target HIV-1 Env of isolate MGRM-D-028 (clade D) (HIV-1).
For assay [7], the target named is HIV-1 Env of isolate MGRM-G-024 (clade G pseudovirus) (HIV-1).
Assay [8] concerns the target HIV-1 Env of pseudovirus NL43, clade B (HIV-1).
In assay [9] the target is HIV-1 LAVIC_18 Env (HIV-1).
Assay [10] addresses HIV-1 LAVI_C22 Env (HIV-1).
The target in assay [11] is HIV-1 MGRM-C-001 Env (HIV-1).
Assay [12] has as its target HIV-1 MGRM-C-013 Env (HIV-1).
The target of assay [13] is HIV-1 MGRM-C-020 Env (HIV-1).
Assay [14] deals with HIV-1 Env of isolate 6535.3 (pseudovirus) (HIV-1 isolate 6535.3, subtype B).
Assay [15] addresses HIV-1 Env of isolate 92RW008 (HIV-1).
Assay [16] concerns the target HIV-1 Env of isolate 92UG031 (HIV-1).
Assay [17] addresses HIV-1 Env of isolate 92WR026 (HIV-1).
Assay [18] deals with HIV-1 Env of isolate 93MW959 (HIV-1).
Assay [19] deals with HIV-1 Env of isolate 94KE105 (subtype AC), on pseudovirus (HIV-1).
For assay [20], the target named is HIV-1 Env of isolate MGRM-A-010 (clade A), on pseudovirus (HIV-1).
Assay [21] concerns the target HIV-1 Env of isolate MGRM-A-011 (clade A), on pseudovirus (HIV-1).
Assay [22] deals with HIV-1 Env of isolate MGRM-A-014 (clade A), on pseudovirus (HIV-1).
In assay [23] the target is HIV-1 Env of isolate MGRM-AE-008 (CRF01_AE), on pseudovirus (HIV-1).
The target in assay [24] is HIV-1 Env of isolate MGRM-AG-001 (CRF_AG), on pseudovirus (HIV-1).
The target of assay [25] is HIV-1 Env of isolate MGRM-AG-003 (CRF_AG), on pseudovirus (HIV-1).
Assay [26] has as its target HIV-1 Env of isolate MGRM-AG-008 (CRF_AG), on pseudovirus (HIV-1).
Assay [27] addresses HIV-1 Env of isolate MGRM-C-019 (HIV-1).
Assay [28] has as its target HIV-1 Env of isolate MGRM-C-026 (HIV-1).
Assay [29] deals with HIV-1 Env of isolate MGRM-C-027 (HIV-1).
Assay [30] has as its target HIV-1 Env of isolate MGRM-D-004 (HIV-1).
Assay [31] addresses HIV-1 Env of isolate MGRM-D-024 (subtype D), on pseudovirus (HIV-1).
For assay [32], the target named is HIV-1 Env of isolate MGRM-F1-022 (subtype F), on pseudovirus (HIV-1).
For assay [33], the target named is HIV-1 Env of isolate MGRM-F1-023 (subtype F), on pseudovirus (HIV-1).
Assay [34] addresses HIV-1 JR-CSF Env N197A (HIV-1 (isolate JR-CSF)) (UniProt P20871).
Assay [35] has as its target HIV-1 JR-CSF Env T162A (HIV-1 (isolate JR-CSF)) (UniProt P20871).
Assay [36] deals with HIV-1 MGRM-C-028 envelope glycoprotein (Env) on pseudovirus (HIV-1).
The target in assay [37] is aMLV envelope on pseudovirus (negative control virus).

Consider 2F5 (antibody), for which the neutralization IC50 in assay [1] turned out to be 3.37 µg/mL. The IC50 (µg/ml), pseudovirus neutralization is greater than 50 µg/mL in assay [2]; greater than 50 µg/mL in assay [3]; 0.24 µg/mL in [4]; greater than 50 µg/mL in assay [5]; greater than 50 µg/mL in [6]; 1.07 µg/mL in assay [7]. For the same substance, in [8], the IC50 (µg/ml), pseudovirus neutralization turned out to be 2.02 µg/mL. Also, the IC50 was greater than 50 µg/mL in [9]; greater than 50 µg/mL in [10]; greater than 50 µg/mL in assay [11]; 18.4 µg/mL in assay [12]; greater than 50 µg/mL in [13].

In assay [14], 5114_A19 (PGT-128) (antibody) came in with an IC50 (µg/mL) neutralization of 0.011 µg/mL. In addition, the neutralization IC50 in assay [15] is 0.003 µg/mL; in assay [16], greater than 50 µg/mL; in [17] it was 0.01 µg/mL. The 50% inhibitory concentration (IC50) in [18] stood at 0.045 µg/mL; in assay [27], 0.01 µg/mL; in [28], 0.007 µg/mL; in [29] it was 0.081 µg/mL; in [30] it was 24.9 µg/mL. In addition, the IC50, single-round pseudovirus neutralization in [19] is 0.007 µg/mL; in assay [20], 0.005 µg/mL; in assay [21], greater than 50 µg/mL; in assay [22], 0.007 µg/mL; in [23], greater than 50 µg/mL; in [24], 4.73 µg/mL. Also, the IC50, single-round pseudovirus neutralization in [25] stood at 34.8 µg/mL; in assay [26], 0.668 µg/mL. In addition, the IC50, pseudovirus neutralization worked out at 0.067 µg/mL in assay [31], 4.54 µg/mL in [32] and 0.007 µg/mL in [33]. Besides, the figures for the Fold IC50 increase relative to wild-type in assay [34] and in assay [35] were 1 fold and 1.1 fold, respectively.

5136_H01 (PGT-131) (antibody) came in with an IC50 (µg/mL) neutralization in [14] of 0.056 µg/mL. For the same substance, the neutralization IC50 was 1.01 µg/mL in assay [15], greater than 50 µg/mL in [16] and 0.041 µg/mL in assay [17]. For the same substance, the IC50 in [18] is greater than 50 µg/mL; in assay [27], 0.021 µg/mL; in assay [28], 1.67 µg/mL; in [29] it was 0.065 µg/mL; in assay [30] it was 2.01 µg/mL. For the same substance, the IC50, single-round pseudovirus neutralization is 0.013 µg/mL in [19]; 0.01 µg/mL in [20]; greater than 50 µg/mL in [21]; 15.4 µg/mL in assay [22]; greater than 50 µg/mL in [23]; greater than 50 µg/mL in assay [24]. The IC50, single-round pseudovirus neutralization in assay [25] is 2.92 µg/mL; in [26], greater than 50 µg/mL. Also, the IC50, pseudovirus neutralization in assay [31], in assay [32] and in assay [33] was greater than 50 µg/mL each time. For the same substance, the Fold IC50 increase relative to wild-type in assay [34] turned out to be 1.1 fold; in assay [35] it was 0.6 fold.

Turning to 5147_N06 (PGT-130) (antibody), the IC50 (µg/mL) neutralization in [14] is 0.031 µg/mL. Further, the neutralization IC50 is 0.039 µg/mL in assay [15], greater than 50 µg/mL in assay [16] and 0.037 µg/mL in assay [17]. The concentration for half-maximal inhibition (IC50) in assay [18] was found to be 8.55 µg/mL; in assay [27], 0.01 µg/mL; in assay [28] it was 0.036 µg/mL; in assay [29], 0.008 µg/mL; in assay [30], 1.21 µg/mL. The IC50, single-round pseudovirus neutralization in [19] was 0.004 µg/mL; in [20] it was 0.005 µg/mL; in [21], greater than 50 µg/mL; in assay [22], 0.161 µg/mL; in assay [23], greater than 50 µg/mL; in assay [24] it was greater than 50 µg/mL. The IC50, single-round pseudovirus neutralization is 0.041 µg/mL in assay [25] and greater than 50 µg/mL in [26]. Moreover, the IC50, pseudovirus neutralization in assay [31] was greater than 50 µg/mL; in assay [32] it was greater than 50 µg/mL; in [33] it was 0.05 µg/mL. The values for the Fold IC50 increase relative to wild-type in assay [34] and in assay [35] were 1.2 fold and 0.6 fold, respectively. The IC50 (ug/ml), neutralizing activity in [36] and in [37] was greater than 10 µg/mL in each case.

Regarding 5329_C19 (PGT-136) (antibody), the IC50 (µg/mL) neutralization in [14] was greater than 50 µg/mL. In addition, the neutralization IC50 in assay [15], in assay [16] and in assay [17] was greater than 50 µg/mL in each case. The 50% inhibitory concentration (IC50) is greater than 50 µg/mL in assay [18]; 20.1 µg/mL in [27]; 0.006 µg/mL in [28]; greater than 50 µg/mL in assay [29]; greater than 50 µg/mL in [30]. Also, the IC50, single-round pseudovirus neutralization in assay [19], in [20], in assay [21], in assay [22], in assay [23] and in [24] was greater than 50 µg/mL in each case. The IC50, single-round pseudovirus neutralization in assay [25] and in assay [26] was greater than 50 µg/mL throughout. Moreover, the IC50, pseudovirus neutralization in [31] is greater than 50 µg/mL; in assay [32], 2.42 µg/mL; in [33] it was greater than 50 µg/mL.

For 5343_B08 (PGT-135) (antibody), in assay [14], the IC50 (µg/mL) neutralization is greater than 50 µg/mL. Besides, the neutralization IC50 in assay [15] was 1.42 µg/mL; in assay [16] it was greater than 50 µg/mL; in [17], 0.068 µg/mL. In addition, the IC50 was greater than 50 µg/mL in assay [18]; 0.264 µg/mL in [27]; 0.004 µg/mL in assay [28]; greater than 50 µg/mL in [29]; greater than 50 µg/mL in [30]. The IC50, single-round pseudovirus neutralization in assay [19] is 0.063 µg/mL; in assay [20], greater than 50 µg/mL; in assay [21] it was greater than 50 µg/mL; in assay [22] it was 0.636 µg/mL; in assay [23], greater than 50 µg/mL; in assay [24] it was greater than 50 µg/mL. For the same substance, the IC50, single-round pseudovirus neutralization in assay [25] and in [26] was greater than 50 µg/mL in each case. Moreover, the IC50, pseudovirus neutralization in [31] was greater than 50 µg/mL; in [32], 0.964 µg/mL; in assay [33], 0.088 µg/mL. In addition, the results for the Fold IC50 increase relative to wild-type in [34] and in assay [35] were 0.3 fold and 0.9 fold, respectively.

In turn, 5345_I01 (PGT-137) (antibody) gave an IC50 (µg/mL) neutralization in assay [14] greater than 50 µg/mL. Also, the neutralization IC50 in [15] was 0.148 µg/mL; in assay [16], greater than 50 µg/mL; in [17], 0.092 µg/mL. Also, the IC50 was greater than 50 µg/mL in assay [18]; greater than 50 µg/mL in assay [27]; 0.011 µg/mL in [28]; greater than 50 µg/mL in assay [29]; greater than 50 µg/mL in assay [30]. The IC50, single-round pseudovirus neutralization in [19] is 18.5 µg/mL; in [20] it was greater than 50 µg/mL; in assay [21] it was greater than 50 µg/mL; in assay [22], 18.6 µg/mL; in [23], greater than 50 µg/mL; in [24], greater than 50 µg/mL. Besides, the IC50, single-round pseudovirus neutralization in assay [25] and in [26] was greater than 50 µg/mL in each case. For the same substance, the IC50, pseudovirus neutralization in assay [31] was greater than 50 µg/mL; in assay [32], 6.23 µg/mL; in assay [33], greater than 50 µg/mL.
